Measured values from the supplement of paper PMC9112550, “Optimization of the antimicrobial peptide Bac7 by deep mutational scanning” (BMC Biology, 2022).
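Note: peptides expressed intracellularly from a pBAD plasmid library in pooled LB shake-flask culture, induced with 0.3% L-arabinose, DNA abundance read by NGS, three biological replicates, DESeq2 with apeglm shrinkage.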

The sequences below were run on Escherichia coli TOP10 (assay: shrunken log2 fold change of peptide-encoding DNA abundance (4.5 h post-induction vs induction); higher = less antimicrobial activity (less host growth inhibition)). Conditions: time post-induction: 4.5 h; library: site-saturation at positions 5, 18, 19, 20.
For RRIRGRPPRLPRPRPRPQNGPRP, the “shrunken log2 fold change” value was 3.22. RRIRYRPPRLPRPRPRPCIHPRP was tested, and the “shrunken log2 fold change” value was -0.0152. In the case of RRIRQRPPRLPRPRPRPIRNPRP, the “shrunken log2 fold change” value is reported as -0.0231. RRIRGRPPRLPRPRPRPESIPRP was tested, and the “shrunken log2 fold change” value was 0.483. In the case of RRIRARPPRLPRPRPRPFCPPRP, the “shrunken log2 fold change” value is reported as 0.11. RRIRLRPPRLPRPRPRPSLGPRP was tested, and the “shrunken log2 fold change” value was -0.213. With RRIRPRPPRLPRPRPRPKFRPRP the “shrunken log2 fold change” value was -0.122. With RRIRLRPPRLPRPRPRPQFFPRP the “shrunken log2 fold change” value was 0.551. For RRIRRRPPRLPRPRPRPRVSPRP, the “shrunken log2 fold change” value was 0.335. With RRIRFRPPRLPRPRPRPCCCPRP the “shrunken log2 fold change” value was 0.0783. With RRIRQRPPRLPRPRPRPNKDPRP the “shrunken log2 fold change” value was -0.665. In the case of RRIRGRPPRLPRPRPRPMKWPRP, the “shrunken log2 fold change” value is reported as 3.42. In the case of RRIRDRPPRLPRPRPRPLPPPRP, the “shrunken log2 fold change” value is reported as 0.306. With RRIRYRPPRLPRPRPRPFMNPRP the “shrunken log2 fold change” value was -0.0199. In the case of RRIRERPPRLPRPRPRPGVWPRP, the “shrunken log2 fold change” value is reported as 0.44. In the case of RRIRIRPPRLPRPRPRPSGLPRP, the “shrunken log2 fold change” value is reported as 0.0161. For RRIRDRPPRLPRPRPRPELDPRP, the “shrunken log2 fold change” value was 1.47. With RRIRARPPRLPRPRPRPQMQPRP the “shrunken log2 fold change” value was 0.508. With RRIRPRPPRLPRPRPRPCKYPRP the “shrunken log2 fold change” value was -0.499. For RRIRIRPPRLPRPRPRPLDVPRP, the “shrunken log2 fold change” value was -0.0639. For RRIRMRPPRLPRPRPRPSWSPRP, the “shrunken log2 fold change” value was 0.154. In the case of RRIRLRPPRLPRPRPRPHKPPRP, the “shrunken log2 fold change” value is reported as 0.119. For RRIRTRPPRLPRPRPRPVNWPRP, the “shrunken log2 fold change” value was 0.0495. RRIRARPPRLPRPRPRPTMLPRP was tested, and the “shrunken log2 fold change” value was 0.15. For RRIRMRPPRLPRPRPRPKKCPRP, the “shrunken log2 fold change” value was 0.959. RRIRHRPPRLPRPRPRPPNHPRP was tested, and the “shrunken log2 fold change” value was -0.442. For RRIRRRPPRLPRPRPRPNAKPRP, the “shrunken log2 fold change” value was 0.0165. In the case of RRIRVRPPRLPRPRPRPMKWPRP, the “shrunken log2 fold change” value is reported as -0.068. For RRIRPRPPRLPRPRPRPQGAPRP, the “shrunken log2 fold change” value was 0.0965. With RRIRDRPPRLPRPRPRPHALPRP the “shrunken log2 fold change” value was -0.225. With RRIRERPPRLPRPRPRPYPCPRP the “shrunken log2 fold change” value was -0.00884. RRIRIRPPRLPRPRPRPSNTPRP was tested, and the “shrunken log2 fold change” value was -0.515. In the case of RRIRGRPPRLPRPRPRPQIQPRP, the “shrunken log2 fold change” value is reported as 0.0796. For RRIRERPPRLPRPRPRPYYEPRP, the “shrunken log2 fold change” value was -0.224. With RRIRIRPPRLPRPRPRPHNNPRP the “shrunken log2 fold change” value was -0.313. With RRIRIRPPRLPRPRPRPMLRPRP the “shrunken log2 fold change” value was -0.119. In the case of RRIRRRPPRLPRPRPRPCKRPRP, the “shrunken log2 fold change” value is reported as 0.0349. In the case of RRIRRRPPRLPRPRPRPWWVPRP, the “shrunken log2 fold change” value is reported as 0.0496. With RRIRLRPPRLPRPRPRPHGMPRP the “shrunken log2 fold change” value was -0.177. With RRIRGRPPRLPRPRPRPMSSPRP the “shrunken log2 fold change” value was -0.154. With RRIRERPPRLPRPRPRPLESPRP the “shrunken log2 fold change” value was -0.0735. For RRIRKRPPRLPRPRPRPRNKPRP, the “shrunken log2 fold change” value was -0.08. For RRIRKRPPRLPRPRPRPTPPPRP, the “shrunken log2 fold change” value was 1.25. RRIRMRPPRLPRPRPRPGKEPRP was tested, and the “shrunken log2 fold change” value was 0.137. In the case of RRIRMRPPRLPRPRPRPCGKPRP, the “shrunken log2 fold change” value is reported as 0.0716. For RRIRYRPPRLPRPRPRPIICPRP, the “shrunken log2 fold change” value was -0.185. RRIRMRPPRLPRPRPRPYTTPRP was tested, and the “shrunken log2 fold change” value was -0.335. RRIRKRPPRLPRPRPRPAVWPRP was tested, and the “shrunken log2 fold change” value was 0.563. For RRIRARPPRLPRPRPRPNKYPRP, the “shrunken log2 fold change” value was -0.449. For RRIRFRPPRLPRPRPRPCTEPRP, the “shrunken log2 fold change” value was -0.431. In the case of RRIRMRPPRLPRPRPRPQSDPRP, the “shrunken log2 fold change” value is reported as -0.00296. With RRIRKRPPRLPRPRPRPTPIPRP the “shrunken log2 fold change” value was 0.639. With RRIRGRPPRLPRPRPRPWMEPRP the “shrunken log2 fold change” value was 0.563. RRIRNRPPRLPRPRPRPNRAPRP was tested, and the “shrunken log2 fold change” value was 0.0272. With RRIRFRPPRLPRPRPRPDDSPRP the “shrunken log2 fold change” value was -0.154. In the case of RRIRSRPPRLPRPRPRPTDWPRP, the “shrunken log2 fold change” value is reported as 0.354. With RRIRKRPPRLPRPRPRPYLFPRP the “shrunken log2 fold change” value was -0.0275. In the case of RRIRPRPPRLPRPRPRPKDIPRP, the “shrunken log2 fold change” value is reported as -0.801. In the case of RRIRARPPRLPRPRPRPFTQPRP, the “shrunken log2 fold change” value is reported as -0.0692. RRIRARPPRLPRPRPRPIKKPRP was tested, and the “shrunken log2 fold change” value was -0.00732. For RRIRIRPPRLPRPRPRPKYMPRP, the “shrunken log2 fold change” value was -0.566. RRIRRRPPRLPRPRPRPSDSPRP was tested, and the “shrunken log2 fold change” value was 0.141. In the case of RRIRPRPPRLPRPRPRPQYDPRP, the “shrunken log2 fold change” value is reported as -0.638. With RRIRQRPPRLPRPRPRPEVGPRP the “shrunken log2 fold change” value was -0.0239. With RRIRPRPPRLPRPRPRPTDCPRP the “shrunken log2 fold change” value was 0.165. In the case of RRIRSRPPRLPRPRPRPLCYPRP, the “shrunken log2 fold change” value is reported as -0.535. In the case of RRIRWRPPRLPRPRPRPLSMPRP, the “shrunken log2 fold change” value is reported as -0.159. RRIRSRPPRLPRPRPRPCMHPRP was tested, and the “shrunken log2 fold change” value was -0.514. With RRIRYRPPRLPRPRPRPRTMPRP the “shrunken log2 fold change” value was -1.72. RRIRARPPRLPRPRPRPLQLPRP was tested, and the “shrunken log2 fold change” value was 0.179. With RRIRGRPPRLPRPRPRPRHHPRP the “shrunken log2 fold change” value was 2.5. With RRIRMRPPRLPRPRPRPCVVPRP the “shrunken log2 fold change” value was -0.0402. With RRIRARPPRLPRPRPRPTYEPRP the “shrunken log2 fold change” value was 0.179. RRIRFRPPRLPRPRPRPQCWPRP was tested, and the “shrunken log2 fold change” value was 0.0388. With RRIRRRPPRLPRPRPRPCMMPRP the “shrunken log2 fold change” value was -0.292.
